Test results reported in US20080280833A1, “Therapeutic Peptides Derived from Urokinase Plasminogen Activator Receptor” (priority 2005, published 2008).

Target: purified human αvβ3 integrin (Chemicon) (human) (UniProt P06756)
Experiment: cell-free pull-down: 125I-suPAR + αvβ3 + uPA + D2A (5 µg), immunoprecipitation with LM609, densitometry

Sequence of purified human αvβ3 integrin (Chemicon) (human) (P06756 31-1048, form in doubt, chain 1 of 2): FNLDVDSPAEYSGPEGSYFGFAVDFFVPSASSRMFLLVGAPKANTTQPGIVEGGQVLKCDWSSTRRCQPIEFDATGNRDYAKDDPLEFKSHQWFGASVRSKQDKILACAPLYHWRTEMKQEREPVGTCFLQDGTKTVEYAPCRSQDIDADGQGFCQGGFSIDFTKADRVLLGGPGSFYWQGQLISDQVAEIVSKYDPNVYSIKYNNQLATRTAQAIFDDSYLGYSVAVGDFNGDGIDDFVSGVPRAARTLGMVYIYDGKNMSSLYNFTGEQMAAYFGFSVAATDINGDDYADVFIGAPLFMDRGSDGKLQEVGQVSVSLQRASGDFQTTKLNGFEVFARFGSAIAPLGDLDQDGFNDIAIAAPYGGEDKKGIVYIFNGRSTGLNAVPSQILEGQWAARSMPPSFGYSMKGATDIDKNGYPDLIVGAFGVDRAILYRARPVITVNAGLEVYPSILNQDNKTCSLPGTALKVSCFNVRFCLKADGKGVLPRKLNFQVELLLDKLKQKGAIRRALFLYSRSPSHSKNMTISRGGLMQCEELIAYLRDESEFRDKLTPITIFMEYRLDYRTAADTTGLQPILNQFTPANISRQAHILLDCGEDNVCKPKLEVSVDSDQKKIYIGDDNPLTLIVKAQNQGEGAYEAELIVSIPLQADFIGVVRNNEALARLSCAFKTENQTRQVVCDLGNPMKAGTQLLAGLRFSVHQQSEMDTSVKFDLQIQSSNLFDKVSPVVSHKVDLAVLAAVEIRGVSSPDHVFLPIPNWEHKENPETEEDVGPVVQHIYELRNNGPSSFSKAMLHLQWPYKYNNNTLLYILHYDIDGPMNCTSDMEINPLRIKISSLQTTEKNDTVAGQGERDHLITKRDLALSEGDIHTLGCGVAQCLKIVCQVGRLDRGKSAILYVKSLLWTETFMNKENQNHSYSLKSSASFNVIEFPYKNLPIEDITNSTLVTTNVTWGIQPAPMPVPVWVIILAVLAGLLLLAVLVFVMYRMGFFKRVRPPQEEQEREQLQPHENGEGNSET
Sequence of purified human αvβ3 integrin (Chemicon) (human) (P05106 27-788, form in doubt, chain 2 of 2, further chain): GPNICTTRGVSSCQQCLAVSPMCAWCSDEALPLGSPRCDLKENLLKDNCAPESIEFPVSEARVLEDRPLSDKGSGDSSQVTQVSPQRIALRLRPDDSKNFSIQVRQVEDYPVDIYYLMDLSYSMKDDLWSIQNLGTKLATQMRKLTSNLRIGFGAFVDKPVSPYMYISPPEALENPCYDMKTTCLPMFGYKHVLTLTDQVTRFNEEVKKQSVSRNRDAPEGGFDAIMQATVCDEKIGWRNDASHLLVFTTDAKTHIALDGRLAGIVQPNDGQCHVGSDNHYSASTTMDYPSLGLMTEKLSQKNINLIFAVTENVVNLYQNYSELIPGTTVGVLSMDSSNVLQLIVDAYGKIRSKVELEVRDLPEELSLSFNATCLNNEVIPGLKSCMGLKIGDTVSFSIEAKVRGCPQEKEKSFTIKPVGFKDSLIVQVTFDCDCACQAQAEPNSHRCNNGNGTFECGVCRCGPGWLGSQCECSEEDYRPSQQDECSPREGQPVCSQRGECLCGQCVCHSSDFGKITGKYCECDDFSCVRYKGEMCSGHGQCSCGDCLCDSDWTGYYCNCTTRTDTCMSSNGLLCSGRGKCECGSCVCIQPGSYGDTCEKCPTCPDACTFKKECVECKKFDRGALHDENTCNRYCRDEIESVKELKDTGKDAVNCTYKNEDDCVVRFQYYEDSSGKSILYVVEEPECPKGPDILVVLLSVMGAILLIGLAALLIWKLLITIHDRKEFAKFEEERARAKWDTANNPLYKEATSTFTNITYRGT

**Q.** For “peptide D2A, synthetic peptide of domain 2 of human uPAR (aa130-142)”, which percent reduction of coimmunoprecipitated suPAR compared to uPA alone is on record?
**A.** Its percent reduction of coimmunoprecipitated suPAR compared to uPA alone is 50%.
